# Reference: US20200079854A1 (Johns Hopkins, published 2020)
# B1: IDH2_R140Q_B7_D4 (scFv)
# scFv: DIQMTQSPSSLSASVGDRVTITCRASQDVNTAVAWYQQKPGKAPKLLIYSASFLYSGVPSRFSGSRSGTDFTLTISSLQPEDFATYYCQQYSYSPPTFGQGTKVEIKRTGGGSGGGGSGGGASEVQLVESGGGLVQPGGSLRLSCAASGFNISDTYIHWVRQAPGKGLEWVASISPRTGYNRYADSVKGRFTISADTSKNTAYLQMNSLRAEDTAVYYCSRAYYSYAYAMDVWGQGTLVTVSS
# B2: IDH2_R140Q_B7_c129 (scFv)
# scFv: DIQMTQSPSSLSASVGDRVTITCRASQDVNTAVAWYQQKPGKAPKLLIYSASFLYSGVPSRFSGSRSGTDFTLTISSLQPEDFATYYCQQGKAYWPATFGQGTKVEIKRTGGGSGGGGSGGGASEVQLVESGGGLVQPGGSLRLSCAASGFNVGHYRMHWVRQAPGKGLEWVAMVSPNGYYTYYADSVKGRFTISADTSKNTAYLQMNSLRAEDTAVYYCSRGYSSYAFDYWGQGTLVTVSS
# notes: also called IDH2 R140Q(134-143)-B7 c1.29
# B3: IDH2_R140Q_B7_c11 (scFv)
# scFv: DIQMTQSPSSLSASVGDRVTITCRASQDVNTAVAWYQQKPGKAPKLLIYSASFLYSGVPSRFSGSRSGTDFTLTISSLQPEDFATYYCQQVYSSPFTFGQGTKVEIKRTGGGSGGGGSGGGASEVQLVESGGGLVQPGGSLRLSCAASGFNVKYYMMHWVRQAPGKGLEWVAAISPGYDYTYYADSVKGRFTISADTSKNTAYLQMNSLRAEDTAVYYCSRSYWRYSVDVWGQGTLVTVSS
# notes: also called IDH2 R140Q(134-143)-B7 c1.1
# B4: IDH2_R140Q_B7_c13 (scFv)
# scFv: DIQMTQSPSSLSASVGDRVTITCRASQDVNTAVAWYQQKPGKAPKLLIYSASFLYSGVPSRFSGSRSGTDFTLTISSLQPEDFATYYCQQYSLYSPMTFGQGTKVEIKRTGGGSGGGGSGGGASEVQLVESGGGLVQPGGSLRLSCAASGFNSFLSIHWVRQAPGKGLEWVAHIFPSSDYTSYADSVKGRFTISADTSKNTAYLQMNSLRAEDTAVYYCSRGKHSSDSNYYMDYWGQGTLVTVSS
# notes: also called IDH2 R140Q(134-143)-B7 c1.3
# B5: IDH2_R140Q_B7_c18 (scFv)
# scFv: DIQMTQSPSSLSASVGDRVTITCRASQDVNTAVAWYQQKPGKAPKLLIYSASFLYSGVPSRFSGSRSGTDFTLTISSLQPEDFATYYCQQSYYMPFTFGQGTKVEIKRTGGGSGGGGSGGGASEVQLVESGGGLVQPGGSLRLSCAASGFNIFRGYMHWVRQAPGKGLEWVAMISPHSDYTSYADSVKGRFTISADTSKNTAYLQMNSLRAEDTAVYYCSRSYGWAAFDYWGQGTLVTVSS
# B6: p53_R248W_A2_c12 (scFv)
# scFv: DIQMTQSPSSLSASVGDRVTITCRASQDVNTAVAWYQQKPGKAPKLLIYSASFLYSGVPSRFSGSRSGTDFTLTISSLQPEDFATYYCQQYSYAPITFGQGTKVEIKRTGGGSGGGGSGGGASEVQLVESGGGLVQPGGSLRLSCAASGFNIGYYTMHWVRQAPGKGLEWVAEVSPWSYSTSYADSVKGRFTISADTSKNTAYLQMNSLRAEDTAVYYCSRDHWDEAFDVWGQGTLVTVSS
# B7: p53_R248Q_A2_c14 (scFv)
# scFv: DIQMTQSPSSLSASVGDRVTITCRASQDVNTAVAWYQQKPGKAPKLLIYSASFLYSGVPSRFSGSRSGTDFTLTISSLQPEDFATYYCQQSLYGPFTFGQGTKVEIKRTGGGSGGGGSGGGASEVQLVESGGGLVQPGGSLRLSCAASGFNIAYEYMHWVRQAPGKGLEWVALIGPDSGYTYYADSVKGRFTISADTSKNTAYLQMNSLRAEDTAVYYCSRVWYYSTYGMDYWGQGTLVTVSS
# B8: p53_R248W_A2_c18 (scFv)
# scFv: DIQMTQSPSSLSASVGDRVTITCRASQDVNTAVAWYQQKPGKAPKLLIYSASFLYSGVPSRFSGSRSGTDFTLTISSLQPEDFATYYCQQYSYSPITFGQGTKVEIKRTGGGSGGGGSGGGASEVQLVESGGGLVQPGGSLRLSCAASGFNLFGYGMHWVRQAPGKGLEWVAEIGPYYYYTSYADSVKGRFTISADTSKNTAYLQMNSLRAEDTAVYYCSRENYDMAMDYWGQGTLVTVSS
# B9: p53_R248W_A2_c111 (scFv)
# scFv: DIQMTQSPSSLSASVGDRVTITCRASQDVNTAVAWYQQKPGKAPKLLIYSASFLYSGVPSRFSGSRSGTDFTLTISSLQPEDFATYYCQQSGYQPDTFGQGTKVEIKRTGGGSGGGGSGGGASEVQLVESGGGLVQPGGSLRLSCAASGFNISWYAMHWVRQAPGKGLEWVAEIWPDSDWTYYADSVKGRFTISADTSKNTAYLQMNSLRAEDTAVYYCSRYYYSSAFDVWGQGTLVTVSS
# B10: p53_R248QW_A2_c114 (scFv)
# scFv: DIQMTQSPSSLSASVGDRVTITCRASQDVNTAVAWYQQKPGKAPKLLIYSASFLYSGVPSRFSGSRSGTDFTLTISSLQPEDFATYYCQQYLYQPWTFGQGTKVEIKRTGGGSGGGGSGGGASEVQLVESGGGLVQPGGSLRLSCAASGFNIDYYGMHWVRQAPGKGLEWVASLYGGSDSTDYADSVKGRFTISADTSKNTAYLQMNSLRAEDTAVYYCSRQYSAYFDYWGQGTLVTVSS
# B11: p53_R248QW_A2_c117 (scFv)
# scFv: DIQMTQSPSSLSASVGDRVTITCRASQDVNTAVAWYQQKPGKAPKLLIYSASFLYSGVPSRFSGSRSGTDFTLTISSLQPEDFATYYCQQGLYYPWTFGQGTKVEIKRTGGGSGGGGSGGGASEVQLVESGGGLVQPGGSLRLSCAASGFNVSYSSIHWVRQAPGKGLEWVAEIWPDSGQTWYADSVKGRFTISADTSKNTAYLQMNSLRAEDTAVYYCSRSSYFDAMDYWGQGTLVTVSS
# B12: KRAS_G12V_A11_V3 (scFv)
# scFv: DIQMTQSPSSLSASVGDRVTITCRASQDVNTAVAWYQQKPGKAPKLLIYSASFLYSGVPSRFSGSRSGTDFTLTISSLQPEDFATYYCQQSSYTPITFGQGTKVEIKRTGGGSGGGGSGGGASEVQLVESGGGLVQPGGSLRLSCAASGFNISQGGIHWVRQAPGKGLEWVAYVYPGGGQTNYADSVKGRFTISADTSKNTAYLQMNSLRAEDTAVYYCSRGYDYSAFDYWGQGTLVTVSS
# B13: KRAS_G12_VA11_V9 (scFv)
# scFv: DIQMTQSPSSLSASVGDRVTITCRASQDVNTAVAWYQQKPGKAPKLLIYSASFLYSGVPSRFSGSRSGTDFTLTISSLQPEDFATYYCQQYAYYPITFGQGTKVEIKRTGGGSGGGGSGGGASEVQLVESGGGLVQPGGSLRLSCAASGFNISSTGMHWVRQAPGKGLEWVAELLGGSGNTNYADSVKGRFTISADTSKNTAYLQMNSLRAEDTAVYYCSRGLQYSAMDYWGQGTLVTVSS
# B14: KRAS_G12V_A11V10 (scFv)
# scFv: DIQMTQSPSSLSASVGDRVTITCRASQDVNTAVAWYQQKPGKAPKLLIYSASFLYSGVPSRFSGSRSGTDFTLTISSLQPEDFATYYCQQYEYYPITFGQGTKVEIKRTGGGSGGGGSGGGASEVQLVESGGGLVQPGGSLRLSCAASGFNFFSTVIHWVRQAPGKGLEWVAEIYPWSGSTYYADSVKGRFTISADTSKNTAYLQMNSLRAEDTAVYYCSRSRSSNYYFDVWGQGTLVTVSS
# B15: KRAS_G12V_A11_V21 (scFv)
# scFv: DIQMTQSPSSLSASVGDRVTITCRASQDVNTAVAWYQQKPGKAPKLLIYSASFLYSGVPSRFSGSRSGTDFTLTISSLQPEDFATYYCQQYTYYPITFGQGTKVEIKRTGGGSGGGGSGGGASEVQLVESGGGLVQPGGSLRLSCAASGFNLHGYLMHWVRQAPGKGLEWVAFIYPPNGYTYYADSVKGRFTISADTSKNTAYLQMNSLRAEDTAVYYCSRGVDYAYLDYWGQGTLVTVSS
# B16: KRAS_G12V_A11_V23 (scFv)
# scFv: DIQMTQSPSSLSASVGDRVTITCRASQDVNTAVAWYQQKPGKAPKLLIYSASFLYSGVPSRFSGSRSGTDFTLTISSLQPEDFATYYCQQYSYYPITFGQGTKVEIKRTGGGSGGGGSGGGASEVQLVESGGGLVQPGGSLRLSCAASGFNLSTHVMHWVRQAPGKGLEWVAEFYPYVGYTYYADSVKGRFTISADTSKNTAYLQMNSLRAEDTAVYYCSRGYRYQYMDVWGQGTLVTVSS
# B17: KRAS_G12V_A11_V24 (scFv)
# scFv: DIQMTQSPSSLSASVGDRVTITCRASQDVNTAVAWYQQKPGKAPKLLIYSASFLYSGVPSRFSGSRSGTDFTLTISSLQPEDFATYYCQQSSVEPWTFGQGTKVEIKRTGGGSGGGGSGGGASEVQLVESGGGLVQPGGSLRLSCAASGFNVSYYSIHWVRQAPGKGLEWVAYIYPWNDYTYYADSVKGRFTISADTSKNTAYLQMNSLRAEDTAVYYCSRGSYYSFDYWGQGTLVTVSS
# Target: T1, IDH2 wt peptide (…) HLA-B7 biotinylated monomer (biotinylated (site not given))
# T1 construct: also called wt version of the peptide of interest in complex with the same HLA allele
# Assay: phage ELISA on monomer-coated streptavidin plate (FIG. 1)
# Protocol: Streptavidin-coated, 96-well plates (R&D Systems, Minneapolis, Minn.) were coated with 50 ng (in 50 uL) of biotinylated mutant or wt peptide-HLA monomers in blocking buffer (PBS with 0.5% BSA, 2 mM EDTA, and 0.1% sodium azide) at 4° C. overnight. Plates were briefly washed with 1×TBST (TBS+0.05% Trition-X 100). Phage was serially diluted to the specified concentrations in blocking buffer and 50 uL was added to each well. Phage were incubated for 2 hrs at RT, followed by washing (6 washes with 1×TBS-0.05% Tween-20 (TBST) using an ELISA plate washer (BioTek, Winooski, Vt.). The bound phage were incubated with 50 μL of rabbit anti-M13 antibody (Pierce, Rockford, Ill.) diluted 1:3000 in 1×TBST for 1 hr at room temperature, followed by washing an additional 6× times and incubation with 50 μL of anti-Rabbit HRP (Thermo Fisher) diluted 1:10,000 in 1×TBST for 1 hour at room temperature. After a final 6 washes with 1×TBST, 50 μL of TMB substrate (BioLegend, San Diego, Calif.) was added to the well and the reaction was quenched with 1N sulfuric acid. Absorbance at 450 nm was measured with a Synergy H1 Multi-Mode Reader (BioTek, Winooski, Vt.).
# Monoclonal phage ELISA was performed by selecting individual colonies of SS320 cells transformed with a limiting dilution of phage obtained from the final selection.
row,Binder,binding result
1,B1,no binding
2,B2,no binding
3,B3,no binding
4,B4,no binding
5,B5,no binding

# Target: control 1 peptide (…, artificial sequence) HLA-B7 biotinylated monomer (biotinylated (site not given))
# Assay: as above
row,Binder,binding result
1,B1,no binding
2,B2,no binding
3,B3,no binding
4,B4,no binding
5,B5,no binding

# Target: control 3 peptide (…, a different peptide from wt IDH2) HLA-B7 biotinylated monomer (biotinylated (site not given))
# Assay: as above
row,Binder,binding result
1,B1,no binding
2,B2,no binding
3,B3,no binding
4,B4,no binding
5,B5,no binding

# Target: p53 wt(245-254) peptide … with HLA-A2 and b2M on peptide-pulsed T2 cells (human)
# Assay: flow cytometry, phage-displayed scFv on peptide-pulsed T2 cells (FIG. 4)
# Protocol: (§1) Cells were stained with 10 μL of precipitated phage per 100 μL of cells, washed and stained with rabbit anti-M13 antibody, then washed and stained with anti-Rabbit-PE antibody. Cells were stained with a live/dead Near-IR dye, washed, and analyzed by an LSRII flow cytometer.
# (§2) The pulsed cells were pelleted, washed once in cold stain buffer (PBS containing 0.5% BSA, 2 mM EDTA, and 0.1% sodium azide), and resuspended in 100 μL of stain buffer. Phage staining was performed on ice with 10 uL (approximately 1×10⁹) phage for 1 hour in 100 uL total volume, followed by one 4 mL wash in cold stain buffer. Cells were then stained with 1 uL of rabbit anti-M13 antibody (Pierce, Rockford, Ill.) in 100 uL total volume on ice for 1 hour and washed once with 4 mL of cold stain buffer. Cells were stained with anti-rabbit-PE (Biolegend) on ice for 1 hour in 100 uL total volume, followed by incubation with LIVE/DEAD Fixable Near-IR Dead Cell Stain (Thermo Fisher) for 10 min at room temperature per manufacturer's instructions. Cells were washed once in 4 mL of stain buffer followed by resuspension in 300 uL of stain buffer before analysis. Stained cells were analyzed using an LSRII flow cytometer (Becton Dickinson, Mansfield, Mass.).
row,Binder,binding result
1,B6,no binding
2,B7,no binding
3,B8,no binding
4,B9,no binding
5,B10,no binding
6,B11,no binding

# Target: KRAS wt(7-16) peptide … with HLA-A11 and b2M on peptide-pulsed Hs611.T cells (human)
# Assay: flow cytometry, phage-displayed scFv on peptide-pulsed Hs611.T cells (FIG. 11)
# Protocol: as §1, §2
row,Binder,binding result
1,B12,no binding
2,B13,no binding
3,B14,no binding
4,B15,no binding
5,B16,no binding
6,B17,no binding

# Target: T2, IDH2 wt(134-143) peptide … with HLA-B7 and b2M on cells (human)
# T2 construct: peptide-pulsed RPMI-6666 cells in flow cytometry
# Assay: flow cytometry, phage-displayed scFv on peptide-pulsed RPMI-6666 cells (FIG. 3)
# Protocol: as §1, §2
row,Binder,binding result
1,B1,no binding
2,B2,no binding
3,B3,no binding
4,B4,no binding
5,B5,no binding
